These results are taken from JP2015097496A (dated 2015).

The target in test [1] is T1, Robo1 IG5-2ドメイン(B5209B抗体が認識するイムノグロブリン様ドメインの5番目) (Homo sapiens (Human), UniProt Q9Y6N7 455-543).
T1 construct: Antigen fragment of Robo1 used in ITC and in the co-crystal structure
T1 sequence: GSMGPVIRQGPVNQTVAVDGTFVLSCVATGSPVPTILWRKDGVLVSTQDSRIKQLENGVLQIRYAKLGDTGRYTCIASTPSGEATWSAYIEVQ
As to the kind of experiment: co-crystal structure of scFv and IG5-2.

Test [2] addresses T1, Robo1 …. As to the kind of experiment: ITC with molecular dynamics interpretation.
In test [3] the target is T1, Robo1 …. As to the kind of experiment: ITC, thermodynamic parameters.

B1: B5209B 一本鎖抗体(scFv) 野生型 (scFv)
scFv: MAEVQLVESGGGVVQPGGSLKLSCAASGFTFSTYDMSWVRQTPDKRLELVATINSNGGSTYYPDSVKGRFTSSRDNAKNILYLQMSSLKSEDTAMYYCAREALLRPPYYALDYWGQGTSVTVSSAGGGGSGGGGSGGGGSGGGGSDILDIQMTQSPASLSASVGETVTITCGASENIYGALTWYQRKQGKSPQLLIYGAINLADDKSSRFSGSGSGRQYSLKISSLHPDDVATYYCQNVLSTPFTFGSGTKLEIKAAGHHHHHH
notes: Expressed in E. coli Origami2(DE3) from pRA2; also called B5209B scFv; WT
Regarding B1, the binding result in test [1] is given as “binds”.

B2: B5209B scFv HP103A変異体 (scFv)
scFv: QLVESGGGVVQPGGSLKLSCAASGFTFSTYDMSWVRQTPDKRLELVATINSNGGSTYYPDSVKGRFTSSRDNAKNILYLQMSSLKSEDTAMYYCAREALLRPAYYALDYWGQGTSVTVSSGGGGSGGGGSGGGGSGGGGSDIQMTQSPASLSASVGETVTITCGASENIYGALTWYQRKQGKSPQLLIYGAINLADDKSSRFSGSGSGRQYSLKISSLHPDDVATYYCQNVLSTPFTFGSGTKLEIKHHHHHH
For B2, in test [2], the binding result is on record as “binds”.

B3: B5209B scFv LY30A変異体 (scFv)
scFv: QLVESGGGVVQPGGSLKLSCAASGFTFSTYDMSWVRQTPDKRLELVATINSNGGSTYYPDSVKGRFTSSRDNAKNILYLQMSSLKSEDTAMYYCAREALLRPPYYALDYWGQGTSVTVSSGGGGSGGGGSGGGGSGGGGSDIQMTQSPASLSASVGETVTITCGASENIAGALTWYQRKQGKSPQLLIYGAINLADDKSSRFSGSGSGRQYSLKISSLHPDDVATYYCQNVLSTPFTFGSGTKLEIKHHHHHH
Consider B3, for which the binding result in test [3] was “binds”.
